# Assay results as given in patent US20220112292A1 (ALETA BIOTHERAPEUTICS, published 2022).
# T1: CLL-1 on U937 cells (human, UniProt Q5QGZ9 1-265)
# T1 construct: whole, on cells; also called CLEC12A; Clec12A
# T1 sequence: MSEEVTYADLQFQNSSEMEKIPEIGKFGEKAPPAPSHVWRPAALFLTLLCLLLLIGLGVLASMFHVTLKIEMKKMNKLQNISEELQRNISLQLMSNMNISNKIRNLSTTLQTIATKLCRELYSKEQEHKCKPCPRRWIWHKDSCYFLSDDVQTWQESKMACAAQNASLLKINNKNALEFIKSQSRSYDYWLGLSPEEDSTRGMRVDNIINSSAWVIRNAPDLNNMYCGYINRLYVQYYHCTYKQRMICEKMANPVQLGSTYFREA
# Key:
# CLL-1 on U937 cells [1] = target: T1, CLL-1 on U937 cells; assay: flow cytometry on U937 cells, a-cMyc then a-msIgG-PE
# Description: (§1) Additional VHH clones were assessed for binding to U937. […] Clones tested: 1A10: stock=0.9 mg/ml; 1B1: stock=0.9 mg/ml; […]: stock=1.5 mg/ml; 2C8: stock=0.9 mg/ml; 1D2: stock=0.06 mg/ml. Previous clone as control 2F5: stock=0.5 mg/ml.
# CLL-1 on U937 cells [2] = target: T1, CLL-1 on U937 cells; assay: flow cytometry on U937 cells, clone at 3ug/ml, a-Myc then a-mIgG-PE; no clone 0.6% and 64,740.2, unstained 0.0% and 4,885.0
# Description: as §1
binder,measurement,setting,value
"1C6 (VHH, also called VHH clone 1C6) VHH: QVQLQESGGALVQAGGSLRLSCAASGLTFSNYAMGWFRQAPGKEREFVAAINWSGGTTDYATSVKGRFTISRDNAKNTVYLQLNSLKPEDTAVYYCAASYRLRITVVVTPDEYHYWGQGTLVTVSS",binding result,CLL-1 on U937 cells [1],no binding (tested: 3ug/ml)
same,% of This Plot (R3),CLL-1 on U937 cells [2],6%
same,Mean FL2-A (R3 gate),CLL-1 on U937 cells [2],12300
